From patent US20130243722A1

Experiments:
Assay in all cases: cell-based or functional assay
[1] = target: murine IL-12 receptor on mouse CD14- PBMC (mouse) (UniProt P97378)
[2] = target: rat IL-12 receptor on rat PBMC (rat)
[3] = target: rhesus monkey IL-12 receptor on rhesus monkey CD14- PBMC (rhesus monkey) (UniProt F6X0C8)
Sequence of rhesus monkey IL-12 receptor on rhesus monkey CD14- PBMC (rhesus monkey) (F6X0C8 entry or part of it): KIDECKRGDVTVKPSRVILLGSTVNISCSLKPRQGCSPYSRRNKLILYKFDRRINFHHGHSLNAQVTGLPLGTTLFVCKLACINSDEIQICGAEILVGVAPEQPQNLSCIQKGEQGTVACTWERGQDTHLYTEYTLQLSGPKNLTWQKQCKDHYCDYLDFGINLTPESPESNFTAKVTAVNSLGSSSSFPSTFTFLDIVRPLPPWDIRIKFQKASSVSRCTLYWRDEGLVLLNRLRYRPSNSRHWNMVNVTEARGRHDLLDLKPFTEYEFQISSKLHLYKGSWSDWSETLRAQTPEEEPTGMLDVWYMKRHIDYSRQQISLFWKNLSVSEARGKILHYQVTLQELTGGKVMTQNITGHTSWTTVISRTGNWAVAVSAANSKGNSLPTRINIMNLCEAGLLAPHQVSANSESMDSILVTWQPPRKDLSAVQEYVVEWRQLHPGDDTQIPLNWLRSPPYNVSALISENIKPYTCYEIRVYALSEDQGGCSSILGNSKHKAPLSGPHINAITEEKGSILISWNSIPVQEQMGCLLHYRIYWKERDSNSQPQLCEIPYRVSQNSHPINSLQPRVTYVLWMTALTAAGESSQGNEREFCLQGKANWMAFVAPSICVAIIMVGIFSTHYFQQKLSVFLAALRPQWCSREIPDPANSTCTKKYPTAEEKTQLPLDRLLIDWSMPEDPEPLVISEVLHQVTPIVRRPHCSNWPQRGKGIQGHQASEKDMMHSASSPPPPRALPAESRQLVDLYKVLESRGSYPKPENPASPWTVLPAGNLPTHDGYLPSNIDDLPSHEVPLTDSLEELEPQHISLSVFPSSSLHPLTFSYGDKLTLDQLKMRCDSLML

Sequence of murine IL-12 receptor on mouse CD14- PBMC (mouse) (P97378 24-874): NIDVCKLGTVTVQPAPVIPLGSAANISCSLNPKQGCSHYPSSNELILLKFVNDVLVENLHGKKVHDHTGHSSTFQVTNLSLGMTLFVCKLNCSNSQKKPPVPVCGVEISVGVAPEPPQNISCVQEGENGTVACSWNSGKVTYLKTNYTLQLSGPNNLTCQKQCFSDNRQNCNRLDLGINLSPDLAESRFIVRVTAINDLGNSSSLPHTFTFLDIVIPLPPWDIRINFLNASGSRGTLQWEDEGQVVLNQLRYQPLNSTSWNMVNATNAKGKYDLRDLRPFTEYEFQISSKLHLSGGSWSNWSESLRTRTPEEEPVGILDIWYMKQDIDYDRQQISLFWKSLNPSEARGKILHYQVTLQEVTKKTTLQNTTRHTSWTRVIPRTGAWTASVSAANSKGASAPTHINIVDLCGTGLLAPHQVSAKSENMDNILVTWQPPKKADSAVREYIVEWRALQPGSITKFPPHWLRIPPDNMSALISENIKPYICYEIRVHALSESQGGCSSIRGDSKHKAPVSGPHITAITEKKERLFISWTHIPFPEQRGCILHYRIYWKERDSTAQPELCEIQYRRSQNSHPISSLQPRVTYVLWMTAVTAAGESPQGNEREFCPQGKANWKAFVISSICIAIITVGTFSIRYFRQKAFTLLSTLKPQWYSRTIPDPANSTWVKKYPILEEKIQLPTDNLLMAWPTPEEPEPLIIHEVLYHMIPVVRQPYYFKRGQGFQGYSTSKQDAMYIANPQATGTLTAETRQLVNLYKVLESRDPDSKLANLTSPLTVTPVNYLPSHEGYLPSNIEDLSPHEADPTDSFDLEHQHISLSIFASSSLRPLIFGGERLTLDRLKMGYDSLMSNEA

Substance	EC50 for stimulating IFN-γ secretion from PBMC [1] [pM]	EC50 for stimulating IFN-γ secretion from PBMC [2] [pM]	EC50 for stimulating IFN-γ secretion from CD14- PBMC (ELISA, 16 hours) [3] [pM]	EC50 for stimulating IFN-γ secretion from CD14- PBMC (ELISA, 16 hours) [1] [pM]
recombinant human IL-12 (from UniProt P29459 23-219; P29460 23-328) (ligand)	> 1000	> 1000	1.05	
recombinant murine IL-12 (from UniProt P43431 23-215; P43432 24-335) (ligand)				0.35
